Assay results: patent publication US20180245061A1, “Modified Heterocyclase” (THE UNIVERSITY COURT OF THE UNIVERSITY OF ABERDEEN, priority 2014, published 2018)
Substitutions are numbered along the chain they refer to.

T1: PatE' (precursor peptide PatE variant, 64 amino acids, full leader, single core peptide ITACITFC, C-terminal …)
T1 peptide: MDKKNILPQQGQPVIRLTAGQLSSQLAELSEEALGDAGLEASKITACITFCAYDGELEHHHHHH

T2: PatE' E31R
T2 construct: Point mutant of PatE'
T2 peptide: T1 peptide with E31R

B1: LynD R74E (enzyme)
chain: MQSTPLLQIQPHFHVEVIEPKQVYLLGEQANHALTGQLYCQILPLLNGQYTLEQIVEKLDGEVPPEYIDYVLEELAEKGYLTEAAPELSSEVAAFWSELGIAPPVAAEALRQPVTLTPVGNISEVTVAALTTALRDIGISVQTPTEAGSPTALNVVLTDDYLQPELAKINKQALESQQTWLLVKPVGSVLWLGPVFVPGKTGCWDCLAHRLRGNREVEASVLRQKQAQQQRNGQSGSVIGCLPTARATLPSTLQTGLQFAATEIAKWIVKYHVNATAPGTVFFPTLDGKIITLNHSILDLKSHILIKRSQCPTCGDPKILQHRGFEPLKLESRPKQFTSDGGHRGTTPEQTVQKYQHLISPVTGVVTELVRITDPANPLVHTYRAGHSFGSATSLRGLRNTLKHKSSGKGKTDSQSKASGLCEAVERYSGIFQGDEPRKRATLAELGDLAIHPEQCLCFSDGQYANRETLNEQATVAHDWIPQRFDASQAIEWTPVWSLTEQTHKYLPTALCYYHYPLPPEHRFARGDSNGNAAGNTLEEAILQGFMELVERDGVALWWYNRLRRPAVDLGSFNEPYFVQLQQFYRENDRDLWVLDLTADLGIPAFAGVSNRKTGSSERLILGFGAHLDPTIAILRAVTEVNQIGLELDKVPDENLKSDATDWLITEKLADHPYLLPDTTQPLKTAQDYPKRWSDDIYTDVMTCVNIAQQAGLETLVIDQTRPDIGLNVVKVTVPGMRHFWSRFGEGRLYDVPVKLGWLDEPLTEAQMNPTPMPF
notes: Point mutant of LynD
B2: LynD: full-length cyanobactin heterocyclase LynD (Lyngbya sp. PCC 8106), SEQ ID NO: 1 (protein)
chain: B1 chain with E74R
modifications: Lyngbya sp. PCC 8106

Columns and labels:
[1] = biological target: Lyngbya sp. LynD heterocyclase (SEQ ID NO: 1) variant R636A; experiment: ITC nucleotide binding (AMP) to LynD R636A; set-up: species or system Lyngbya sp. PCC 8106; details: 25° C., pH 7.4, 5 mM MgCl2
Method: (§1) Codon optimized full-length LynD (Lyngbya sp. PCC 8106) with an N-terminal TEV protease-cleavable His6-tag was purchased from DNA2.0 in the pJexpress411 plasmid. The protein was expressed in Escherichia coli BL21 (DE3) grown on auto-induction medium {Studier, 2005, Protein expression and purification, 41, 207-234} for 48 h at 20° C. Cells were harvested by centrifugation at 4,000×g, 4° C. for 15 min and re-suspended in lysis buffer (500 mM NaCl, 20 mM Tris pH 8.0, 20 mM imidazole and 3 mM β-mercaptoethanol (BME)) with the addition of complete EDTA-free protease inhibitor tablets (Roche) and 0.4 mg DNase g^−1 wet cells (Sigma). Cells were lysed by passage through a cell disruptor at 30 kPSI (Constant Systems Ltd) and the lysate was cleared by centrifugation at 40,000×g, 4° C. for 20 min. The cleared lysate was applied to a Nickel Sepharose 6 Fast Flow (GE Healthcare) column pre-washed with lysis buffer and protein eluted with 250 mM imidazole. The protein was then passed over a desalting column (Desalt 16/10, GE Healthcare) in 100 mM NaCl, 20 mM Tris pH 8.0, 20 mM imidazole, 3 mM BME. Tobacco etch virus (TEV) protease was added to the protein at a mass-to-mass ratio of 1:10 and the protein digested for 2 h at 20° C. to remove the Hiss-tag. However, removal of the Hiss-tag was not essential for activity and so less vigorous methods for purification may also be used. […]

[2] = biological target: Lyngbya sp. LynD heterocyclase (SEQ ID NO: 1) variant R427E; experiment: ITC nucleotide binding (ATP/AMP) to LynD R427E; set-up: species or system Lyngbya sp. PCC 8106; details: 25° C., pH 7.4, 5 mM MgCl2
Method: as §1

[3] = biological target: Lyngbya sp. LynD heterocyclase (SEQ ID NO: 1) variant R636E; experiment: ITC nucleotide binding (ATP/AMP) to LynD R636E; set-up: species or system Lyngbya sp. PCC 8106; details: 25° C., pH 7.4, 5 mM MgCl2
Method: as §1

[4] = biological target: Lyngbya sp. LynD heterocyclase (SEQ ID NO: 1) variant K409E; experiment: ITC nucleotide binding (ATP/AMP) to LynD K409E; set-up: species or system Lyngbya sp. PCC 8106; details: 25° C., pH 7.4, 5 mM MgCl2
Method: as §1

[5] = biological target: Lyngbya sp. LynD heterocyclase, wild type, SEQ ID NO: 1; experiment: ITC nucleotide binding (ATP/AMP) to LynD; set-up: species or system Lyngbya sp. PCC 8106; details: 25° C., pH 7.4, 5 mM MgCl2, one-site model, stoichiometry set to 1, read-out: Nucleotide KD (AMP)
Method: as §1

[6] = biological target: Lyngbya sp. LynD heterocyclase (SEQ ID NO: 1) variant K409A; experiment: ITC nucleotide binding (ATP/AMP) to LynD K409A; set-up: species or system Lyngbya sp. PCC 8106; details: 25° C., pH 7.4, 5 mM MgCl2
Method: as §1

[7] = biological target: Lyngbya sp. LynD heterocyclase (SEQ ID NO: 1) variant E423R; experiment: ITC nucleotide binding (ATP/AMP) to LynD E423R; set-up: species or system Lyngbya sp. PCC 8106; details: 25° C., pH 7.4, 5 mM MgCl2
Method: as §1

PatE′ [8] = experiment: Heterocyclization reaction with PatE′, MS analysis; assay type: biochemical; details: 5 mM ATP, 5 mM MgCl2, 16 h at 37° C.; for No. of heterocycles, peptide PatE′: 2 μM enzyme, TABLE 2
Method: (§2) For all heterocyclization reactions, […] PatE′ (and variants,) was incubated with 2 μM enzyme in 150 mM NaCl, 10 mM HEPES pH 7.4, 1 mM TCEP, 5 mM ATP and 5 mM MgCl2 for 16 h at 37° C. Samples were analyzed by ESI or MALDI MS (LCT, Micromass or 4800 MALDI TOF/TOF Analyzer, ABSciex). For cis trans activation studies, 100 μM ITACITFCAYDG synthetic test peptide (Peptide Protein Research Ltd) was reacted with 5 μM heterocyclase enzyme in the presence and absence of 5.5 μM LAELSEEAL synthetic peptide, or 5.5 μM full-length PatE′4 leader peptide. The reaction was carried out in 150 mM NaCl, 10 mM HEPES pH 7.4, 1 mM TCEP, 5 mM ATP and 5 mM MgCl2 for 16 h at 37° C. and analyzed as above. Synthetic peptides were purchased from Peptide Protein Research Ltd.

PatE′ E31R = experiment: ITC substrate peptide binding: PatE′ E31R; details: 10 μM enzyme, 150 μM peptide, 20° C.
Method: (§3) ITC experiments were performed using a VP-ITC instrument (MicroCal) in heterocyclization reaction buffer (150 mM NaCl, 10 mM HEPES pH7.4, 1 mM TCEP) supplemented with 5 mM MgCl2. For substrate binding experiments a cell solution of 10 μM LynD (and mutants) and a syringe solution of 150 μM PatE′ (and mutants) was prepared by diluting protein and peptide with the buffer used for dialysis. For nucleotide binding experiments, the cell concentration was increased to 20 μM, and the ATP/AMP concentration in the syringe solution was 300 μM. Substrate, and ATP experiments were performed at 20° C., and AMP experiments at 25° C. Cell and syringe solutions were degassed for 15 min at 18 and 23° C. Titration method was as follows: one injection of 2 μl followed by injections of 5 μl at 0.5 μl/min, with a delay of 4 min between every injection. The stirring speed was 307 rpm throughout. Raw data was processed using MicroCal Origin software, and the baseline was adjusted and the integrations limits were selected manually. Data was non-linearly fitted to the one-site model (Origin) setting the stoichiometry to 1.

PatE′ [9] = experiment: ITC substrate peptide binding: PatE′; details: 10 μM enzyme, 150 μM peptide, 20° C.
Method: as §3

[10] = biological target: T1, PatE' (precursor peptide PatE variant, …); experiment: ITC, 20 C
PatE' E31R = biological target: T2, PatE' E31R; experiment: ITC, 20 C
PatE′ L26R [11] = experiment: ITC substrate peptide binding: PatE′ L26R; details: 10 μM enzyme, 150 μM peptide, 20° C.
Method: as §3

PatE′ L29R = experiment: ITC substrate peptide binding: PatE′ L29R; details: 10 μM enzyme, 150 μM peptide, 20° C.
Method: as §3

PatE′ L26R [12] = experiment: Heterocyclization reaction with PatE′ L26R; assay type: biochemical; details: 2 μM enzyme, 5 mM ATP, 5 mM MgCl2, 16 h at 37° C.
Method: as §2

PatE′ E32R = experiment: Heterocyclization reaction with PatE′ E32R; assay type: biochemical; details: 2 μM enzyme, 5 mM ATP, 5 mM MgCl2, 16 h at 37° C.
Method: as §2

Sequence of PatE′ L26R (as listed by the source, stated change not applied): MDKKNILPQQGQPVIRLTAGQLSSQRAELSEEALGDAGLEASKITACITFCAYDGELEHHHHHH
Sequence of PatE′ E31R (as listed by the source, stated change not applied): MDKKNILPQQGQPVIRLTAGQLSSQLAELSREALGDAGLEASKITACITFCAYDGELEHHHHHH
Sequence of PatE′ L29R (as listed by the source, stated change not applied): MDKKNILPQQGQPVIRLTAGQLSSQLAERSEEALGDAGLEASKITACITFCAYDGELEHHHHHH
Sequence of PatE′ L29R (as listed by the source partner): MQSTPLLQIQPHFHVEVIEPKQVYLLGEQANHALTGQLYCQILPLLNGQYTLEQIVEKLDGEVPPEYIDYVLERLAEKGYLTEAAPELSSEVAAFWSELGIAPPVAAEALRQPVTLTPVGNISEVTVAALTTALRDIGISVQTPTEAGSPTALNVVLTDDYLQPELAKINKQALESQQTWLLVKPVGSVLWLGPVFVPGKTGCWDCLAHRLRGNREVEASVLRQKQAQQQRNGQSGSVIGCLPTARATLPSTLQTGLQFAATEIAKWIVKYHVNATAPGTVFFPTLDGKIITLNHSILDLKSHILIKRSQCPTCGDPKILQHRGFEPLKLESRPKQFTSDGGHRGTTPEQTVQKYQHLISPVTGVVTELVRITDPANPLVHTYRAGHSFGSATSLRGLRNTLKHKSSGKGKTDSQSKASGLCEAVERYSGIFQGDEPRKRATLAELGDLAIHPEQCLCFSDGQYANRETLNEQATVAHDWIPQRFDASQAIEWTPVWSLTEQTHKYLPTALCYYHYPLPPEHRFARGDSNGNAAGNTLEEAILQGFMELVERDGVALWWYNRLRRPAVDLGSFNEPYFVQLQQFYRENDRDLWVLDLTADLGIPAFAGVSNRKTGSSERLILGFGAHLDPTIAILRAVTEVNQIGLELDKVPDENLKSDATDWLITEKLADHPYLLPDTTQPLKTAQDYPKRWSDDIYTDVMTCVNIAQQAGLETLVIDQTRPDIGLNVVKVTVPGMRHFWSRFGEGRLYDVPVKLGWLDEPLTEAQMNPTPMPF
Sequence of PatE′ E32R (as listed by the source, stated change not applied): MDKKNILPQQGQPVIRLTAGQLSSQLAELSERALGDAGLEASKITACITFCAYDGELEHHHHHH

| Molecule | Nucleotide KD (AMP) [1] | Kd [2] [µM] | Nucleotide KD (AMP) [3] | Nucleotide KD (AMP) [4] | Kd [5] [µM] | Nucleotide KD (AMP) [6] | Kd [7] [µM] | No. of heterocycles, peptide PatE′ (PatE′ [8]) | KD (μM), peptide PatE′ E31R (PatE′ E31R) | KD (μM), peptide PatE′ (PatE′ [9]) | binding result [10] | binding result (PatE' E31R) | KD (μM), peptide PatE′ L26R (PatE′ L26R [11]) | No. of heterocycles (PatE′) (PatE′ [8]; PatE′ with 2 μM enzyme, TABLE 1) | KD (μM), peptide PatE′ L29R (PatE′ L29R) | No. of heterocycles, peptide PatE′ L26R (PatE′ L26R [12]) | No. of heterocycles, peptide PatE′ E32R (PatE′ E32R) |
| --- | --- | --- | --- | --- | --- | --- | --- | --- | --- | --- | --- | --- | --- | --- | --- | --- | --- |
| Nc1ncnc2c1ncn2[C@@H]1O[C@H](COP(=O)(O)O)[C@@H](O)[C@H]1O [AMP] | no binding | 23 | no binding | no binding | 14.4 | no binding | 5.65 | – | – | – | – | – | – | – | – | – | – |
| B1 | – | – | – | – | – | – | – | 2 | no binding | no binding | no binding | no binding | – | – | – | – | – |
| B2 | – | – | – | – | – | – | – | 2 | no binding | – | – | – | no binding | 2 | no binding | 2 | 2 |
